Laboratory results reported in paper PMC11147780, “Vaccination induces broadly neutralizing antibody precursors to HIV gp41” (Nature Immunology, 2024).
Residue numbers refer to the chain shown, from its start.

T1: 10E8-GT10.2 epitope scaffold (designed scaffold 10E8-GT10.2 with …, N-linked glycosylation sites added (positions not given))
T1 chain: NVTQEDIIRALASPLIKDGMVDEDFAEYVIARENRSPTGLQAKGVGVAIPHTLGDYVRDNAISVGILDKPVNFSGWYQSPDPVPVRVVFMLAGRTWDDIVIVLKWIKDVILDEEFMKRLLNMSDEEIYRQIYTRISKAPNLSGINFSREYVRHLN

B1: NHP-10E8_MPER-GT10v55_W21-06 (antibody, V domains shown)
VH: EVRLVESGGGLVQPGGSLRLSCAASGFTFSDYYMSWVRQAPGKGPEWVGFIRNKANGGTAEYAASVKGRFTISRDDSKSIASLQMNSLKTEDTAVYYCAREKVYYNFWSGYLENYGLDSWGQGVVVTVSS
VL: DVVMTQSPLSLPITPGQPASISCRSSQSLVYSDGKTYLNWYQQKPGQPPRRLIYQVSNRDSGVPDRFSGSGAGTDFTLKISRVEAEDVGVYYCMQGTHLPYSFGQGTKVEIK
B2: NHP-10E8_MPER-GT10v55_W21-18 (antibody, V domains shown)
VH: QLQLQESGPGLVKPSETLSLTCAVSGGSISSSYWSWIRQAPGKGLEWIGYIYGSGSSTNYNPSLKSRVTLSVDTSKNQLSLKLSSVTAADTAVYYCARDVKDYNFWSGYYEDGYFDYWGQGVLVTVSS
VL: DIVMTQTPLSLPVTPGEPASISCRSSQSLLHSNGNTYLHWYLQKPGQSPRLLIYKVTNRESGVPDRFSGSGSGTDFTLKISRVEPEDVGVYYCMQSTKDPYSFGQGTKVEIK
B3: NHP-10E8_MPER-GT10v55_W21-14 (antibody, V domains shown)
VH: QVQLQESGPGLVKPSETLSLTCAVSGGSISSGYYYWSWIRQPPGKGLEWIGYITYSGSTSYNPSLKSRVTISRDTSKNQFSLKLSSVTAADTAVYYCASAPSYYNFWSGYYHLDYFDYWGQGVLVTVSS
VL: QSVLTQPPSVSGAPGQRVTISCTGSSSNIGGYYVSWYQQLPGTTPKLLIYQDNKRPSGVSDRFSGSKSGTSASLTITGLQTEDEADYYCLSYDSSLSAHGLFGGGTRLTV
B4: NHP-10E8_MPER-GT10v55_W21-03 (antibody, V domains shown)
VH: EVHLVESGAGLVQPGGSLRLSCAASGFTFRNSWMSWVRQAPGKGLEWIARIKRKADGETTDYAASVKGRFTLSRDDSKNTVYLQMDSLKTEDTAVYYCTTDQGYYNFWSGNYDYYGLDSWGQGVVVAVSS
VL: DIQMTQSPSSLSAFVGDRVTITCRASQGISTHLNWYQQKPGKAPKRLIYTSSNLETGVPSRFSGSGSGTDFTLTISSLQPEDFATYYCLQYNSDPWTFGQGTKVEIK
B5: NHP-10E8_MPER-GT10v55_W21-07 (antibody, V domains shown)
VH: EVQLVESGGGLVQPGGSLRLSCAASGFTFSDYAMDWVRQAPGKGLEWVGFIRSKAYGGTAEYAASVKGRFTISRDDSKNTAYLQMSSLKTEDTAVYYCTRAARGYNFWSGYYTGYGLDSWGQGVVVTVSS
VL: EIVMTQSPATLSLSPGERATLSCRTSQSVSSYVAWYQQKPEQAPRLLIYGASSRATGIPDRFSGGGSGTDFTLTISSLEPEDFAVYYCQQYSNWPYSFGQGTKVEIK
B6: NHP-10E8_MPER-GT10v55_W10-11 (antibody, V domains shown)
VH: EVQLVESGGGLVQPGGSLRLSCAASGFAFSDYTMDWVRQAPGKGLEWVGFIRSRDYGGKVDYAASVKGRFTISRDDSKNTAYLHMSSLKTEDTAVYYCTRSKRHYSFWSGDYPHYGLDSWGQGVVVTVSS
VL: QSVVTQPPSVSGDPGQRVTIYCTGNSSNIGGYDVYWYQQVPGTAPKLLMYENNKRPSGVSDRFSGSKSGTSASLTITGLQSEDEAEYYCETWDNSLNGRVFGGGTRLTV
B7: NHP-10E8_MPER-GT10v55_W10-12 (antibody, V domains shown)
VH: EVHLVESGGGLVQPGGSLRLSCAASGFTFSDYAMDWVRQAPGKGLEWVGFIGSKDYGGTVEYAASVKGRFTISRDDLKNTAYLQMSRLKTEDTAVYYCTRSKTCYSFWSGYYPHYGLDSWGQGVVVTVSS
VL: B6 VL with V4L, Y21S, Y32F, Q39L, V40L, M49I, N53T, V59I, V100L
B8: NHP-10E8_MPER-GT10v55_W21-08 (antibody, V domains shown)
VH: EVQLVESGGGLVQPGGSLRLSCAASGFTFSDYYMYWVRQAPGKGLEWVGFIRSKAYGGTAEYAASVKGRFTISRDDSKSIAYLQMSSLKTEDTAVYYCTRALPYYNFWSGYYTHFDAFDFWGQGLRVTVSS
VL: QAAPTQPPSVSGSPGQSVTISCTGTSSDIGYYNAVSWYQQHPGKAPKLMIYEVSKRPSGVSDRFSGSKSGNTASLTISGLQAEDEADYYCSSYAGSNTLLFGGGTRLTV
B9: NHP-10E8_MPER-GT10v55_W21-16 (antibody, V domains shown)
VH: B3 VH with S99R, A100V, P101G, S102V, H112T, L113N, D114T
VL: B8 VL with L99F, L100I, G103A
B10: NHP-10E8_MPER-GT10v55_W21-15 (antibody, V domains shown)
VH: QLQLQESGPGLVKPSETLSLTCAVSGGSISSSNWWSWIRQPPGKGLEWIGRISGSGGSTSDNPSLKSRVTISKDTSKNQFSLKLSSVTAADTAVYYCASESFYYNFWSGYYQENSLDVWGRGVLVTVSS
VL: QPVLTQPTSLSASPGASARLSCTLSSGINVGSYSIFWYQQKPGSPPRYLLYYYSDSSKHQGSGVPSRFSGSKDASANAGLLLISGLQSEDEADYYCAIWHSSAYVLFGGGTRLTV
B11: NHP-10E8_MPER-GT10v55_W10-10 (antibody, V domains shown)
VH: EVQVVESGGGLVQPGGSLRLSCAASGFTFSDYAMDWVRQAPGKGLEWVGFIRSKDYGGTAEYAASVKGRFTISRDDSKNTAYLQMSSLKTEDTAVYYCTRDRRYYSFWSGYDRGWYFDLWGQGALVTVSS
VL: DIVMTQTPLSLPVTLGEPASISCRSSQSLLNSEDGNTSLAWYLQKPGQSPQLLIYEVSNRASGVPDRFSGSGSDTDFTLKISRVEAEDVGVYYCMQPLEFPPTFGQGTKVEIK
B12: NHP-10E8_MPER-GT10v55_W26-04 (antibody, V domains shown)
VH: EVQLVESGGGLVQPGGSLRLSCAASGFTFSSYGMHWVRQAPGKGLEWVAVIWYDGSKKYYADSVKDRFTISRDNSKNMLYLQMNNLKLEDTAVYYCARGGAYYNFWSGYYTLLNRFDVWGPGVLVTVSS
VL: B11 VL with L15P, N31D, S38Y, A40D, P97G, P102Y, T103S
B13: NHP-10E8_MPER-GT10v55_W21-13 (antibody, V domains shown)
VH: QLQLQESGPGLVKPSETLSLTCAVSGGSISGGYGWSWIRQPLGKGLEWIGHIFGSIGSTYYNPSLKSRVTISTDTSKNQFSLKLSSVTAADTAVYYCARTRSFYNFWSGYYTRHAFDFWGQGLRVTVSS
VL: B11 VL with N31D, S38Y, A40E, P97A
B14: NHP-10E8_MPER-GT10v55_W21-10 (antibody, V domains shown)
VH: EVRLVESGGDLVQPGGSLRLSCAASGFTFSYYSMSWVRQAPGKGLEWIGFIKNKADGGTEAYAESVKGRFTISRDDSENTLYLQMNSLKTDDTAVYSCTRGRVYYNFWSGFYTGGRFDVWGPGVLVTVSS
VL: B11 VL with L15P, N31D, S38Y, A40D, V84L, P97G, P102F, Q106P, V110L, E111D
B15: NHP-10E8_MPER-GT10v55_W21-09 (antibody, V domains shown)
VH: EVRLVESGGGLVQPGGSLRLSCAASGFTFSDYYMSWVRQAPGKGPEWVGFIRNKANGGTAEYAASVKGRFTISRDDSKSIASLQMNSLKTEDTAVYYCARESPYYNFWSGYYGTNDAFDFWGQGLRVTVSS
VL: QPVLTQSPSASASLGASVKLTCTLSSGHSSYAIAWHQQQQGKAPRYLMRLNSVGSHSKGDGIPDRFSGSSSGAERYLTISNLQSEDEADYYCQTWTTGIQVFGGGTRLTV
B16: NHP-10E8_MPER-GT10v55_W26-07 (antibody, V domains shown)
VH: QVQLQESGPGLVKPSETLSLTCAVSGGSFSSYWWGWIRQTPGKGLEWIGSIYGSSGTTEYNPSHKSRATISRDTSENQFSLKLSSVTAADTAVYYCARSGEWPYNFWGGTHNPPHWYFDLWGPGTPIIISS
VL: DVVMTQSPLSLSITPGQPASISCRSSHSLIHSNGNTYLSWYQQKPGQPPRRLIYEVSKQDSGVPERFSGSGAGTDFTLKISRVEAEDVGIYYCGQGTHLPLTFGPGTKLDIK
B17: NHP-10E8_MPER-GT10v55_W21-05 (antibody, V domains shown)
VH: EVRLVESGGGLVQPGGSLRLSCAASGFTFSDYYMSWVRQAPGKGPEWVGFIRNKANGGTAEYAASVKGRFTISRDDSKSIASLQMNSLKTEDTAVYYCARDTYTYNFWSGYYRSNSLDVWGRGVLVTVSS
VL: SYDLTQPPSVSVSPGQTARITCGGDNIGSEAVHWYQQKPPQAPVQVIYSDSERPSGIPERFSGSKSGNTATLTISGVEAGDEADYYCQVWDISSDHYIFGAGTRLTV
B18: NHP-10E8_MPER-GT10v55_W21-11 (antibody, V domains shown)
VH: B17 VH with T102R, Y103G, T104N, Y112S, R113G, N115D, S116Y, L117F, V119Y, R122Q
VL: QSVLTQPPSVSAAPGQKVTISCSGSSSNIGRSYVSWYQQVPGTAPKLLIYDNNKRPSGVSDRFSGSKSGTSASLAITGLQTGDEADYYCGAWDSSLSAGLFGGGTRLTV
B19: NHP-10E8_MPER-GT10v55_W21-17 (antibody, V domains shown)
VH: QVQLQESGPGLVKPSETLSLTCVVAGGSISDDYYWSWIRQSPGKGLEWIGYIYGSGGGTKYNPSLKNRVTISIDTSKNQFSLKLSSVTAADTAVYYCARELRYYNFWSGYYDNYYGLDSWGQGVVVTVSS
VL: DIVMTQTPLSLPITPGEPASISCRSSQSLLHSTGNTYLHWYLQKPGQSPQLLIYGGSNRASGVPDRFSGSGSGTDFTLKISKVEAEDVGVYYCVQAIAFPFTFGPGTKLDIK
B20: NHP-10E8_MPER-GT10v55_W26-02 (antibody, V domains shown)
VH: EVQLVESGGGLAKPGGSLRLSCAASGFTFSDYYMDWVRQAPGKGLEWVSRISNGGGSTWYADSVKGRFTISRENAKNTLYLQMNSLRAEDTAVYYCASELSYYNFWSGYGASYGLDSWGQGVVVTVSS
VL: QPVLTQPTSLSASPGASARLTCTLRSGISVGSYRIFWYQQKPGSPPRYLLNYHTDSDKHQGSGVPSRFSGSKDASANAGILLISGLQSEDEADYYCMIWHNNAYIFGAGTRLTV
B21: NHP-10E8_MPER-GT10v55_W26-01 (antibody, V domains shown)
VH: QLQLQESGPGLVKPSETLSLTCAVSGGSISSNYWSWIRQPPGKGLEWIGRISGSGGSTDYNPSLKSRVTISTDTSKNQFSLKLSSVTAADTAVYYCAGNSHYYNFWSGYYGDNSLDVWGRGVLVTVSS
VL: SYDVTQPRSVSVSPGQTARITCGGDNIGSKNVHWYQQKPAQAPVLVIYYDSDRPSGIPERFSGSNSGNTATLTISGVEAGDEADYYCQVWDSSSDHRLFGGGTRLTV

Target: T1, 10E8-GT10.2 epitope scaffold

Binder | Kd [µM]
B1 | 5.92
B2 | 6
B3 | 2.4
B4 | 8.32
B5 | 7.64
B6 | 4.16
B7 | 0.752
B8 | 13.2
B9 | 2.4
B10 | 5.13
B11 | 0.0956
B12 | 5.05
B13 | 1.3
B14 | 0.00081
B15 | 3.32
B16 | 0.0326
B17 | 2.41
B18 | 8.11
B19 | 0.00241
B20 | 3.09
B21 | 3.69
